Measured values published in patent US20250041410A1 (Y MABS THERAPEUTICS, published 2025).

Biological target: the molecule itself
Experiment: mass photometry (Refeyn) after dilution in PBS and 60 min at 37 C; self-association of the chain into dimer and tetramer
Description: For this example, a Refeyn Mass photometer (Refeyn Ltd, Oxford UK) was used according to the manufacturer's instructions, with the following settings:
The GD2-SADA construct was diluted in PBS, and incubated for 60 minutes at 37° C. before measuring the size distribution. Following dilutions were made: 150 nM, 100 nM, 50 nM, 10 nM, 5 nM, 1 nM and 100 PM and subjected to Mass photometry using the Refeyn Mass photometer.

B1: GD2-SADA complex (other)
chain: EIVMTQTPATLSVSAGERVTITCKASQSVSNDVTWYQQKPGQAPRLLIYSASNRYSGVPARFSGSGYGTEFTFTISSVQSEDFAVYFCQQDYSSFGCGTKLEIKRGGGGSGGGGSGGGGSGGGGSGGGGSGGGGSQVQLVESGPGVVQPGRSLRISCAVSGFSVTNYGVHWVRQPPGKCLEWLGVIWAGGITNYNSAFMSRLTISKDNSKNTVYLQMNSLRAEDTAMYYCASRGGHYGYALDYWGQGTLVTVSSGGGGSGGGGSGGGGSGGGGSHVQLVESGGGLVQPGGSLRLSCAASGFSLTDYGVHWVRQAPGKGLEWLGVIWSGGGTAYNTALISRFTISRDNSKNTLYLQMNSLRAEDTAVYYCARRGSYPYNYFDAWGCGTLVTVSSGGGGSGGGGSGGGGSGGGGSGGGGSGGGGSQAVVTQEPSLTVSPGGTVTLTCGSSTGAVTASNYANWVQQKPGQCPRGLIGGHNNRPPGVPARFSGSLLGGKAALTLLGAQPEDEAEYYCALWYSDHWVIGGGTKLTVLGTPLGDTTHTSGKPLDGEYFTLQIRGRERFEMFRELNEALELKDAQAGKEPGGSGGA
notes: A single polypeptide: anti-GD2 scFv, humanized C825 (anti-DOTA) scFv and the p53 tetramerization (SADA) domain; It is written here as one chain that associates with itself; In the mass photometry assay it was a concentration-dependent mixture of monomer, dimer, tetramer and higher multimers; also called GD2-SADA construct; GD2-SADA conjugate
B1: binds.
